Test results as given in patent US20260209319A1 (JECHO LABORATORIES, published 2026).
Numbering of substitutions follows the chain as printed. Names and notes keep the numbering of the source. Blank lines part the entries; values can stand above or below the binder they belong to.

Assays:
[1] = biological target: T1, mesothelin on the cell surface (OVCAR3, Capan-2 cells) (UniProt Q13421 296-598); experiment: cell-based or functional assay
[2] = biological target: T2, CD3 on Jurkat cells (UniProt P07766 23-207); experiment: flow cytometry on Jurkat cells
T2 construct: whole, on cells; Part of the TCR/CD3 complex on cells

[3] = biological target: T1, mesothelin on the cell surface (OVCAR3, …); experiment: flow cytometry on OVCAR3 cells
[4] = biological target: T3, mesothelin (soluble, recombinant) (UniProt Q13421 296-580, limits assumed); experiment: method not stated; quoted in the T cell activation example
T3 construct: also called MSLN; soluble MSLN

[5] = biological target: T3, mesothelin (soluble, recombinant); experiment: cell-based or functional assay
[6] = biological target: T3, mesothelin (soluble, recombinant); experiment: Octet BLI, bsAb captured on AHC biosensors, mesothelin 0-200 nM, 1:1 model
Source text: The Fe-epitope anti-human capture (AHC) biosensors from ForteBio were used for loading the testing bsAbs. […] A probe loaded with a control antibody was used as a reference sensor. […] The dissociation constants (KD) and Kₒₙ/Koff are estimated by fitting to the 1:1 binding model. The probes were regenerated for multiple rounds of measurements.

[7] = biological target: T3, mesothelin (soluble, recombinant); experiment: SPR, Biacore 3000, antibody captured via an Fc antibody, mesothelin 0.625-10 nM
[8] = biological target: T3, mesothelin (soluble, recombinant); experiment: SPR (Biacore 3000), antibody captured on the chip via an Fc antibody, mesothelin 0.625-10 nM [text above the curves]
Procedure: The measurement was performed by immobilizing the tested antibody and then perfusing with corresponding concentrations of mesothelin.

[9] = biological target: mesothelin on the cell surface (OVCAR3, Capan-2 cells) (UniProt Q13421 296-598); experiment: cell-based or functional assay; remark: listed apart in the source

B1: m912-[L]-scFv^CD3 bsAb (bispecific antibody, V domains shown)
VH: QVQLQESGPGLVKPSETLSLTCTVSGGSVSSGSYYWSWIRQPPGKGLEWIGYIYYSGSTNYNPSLKSRVTISVDTSKNQFSLKLSSVTAADTAVYYCAREGKNGAFDIWGQGTMVTVSS
VL: not shown
EC50, T cell activation assay (Jurkat NFAT-luciferase reporter) in the presence of Capan-2 cells [1]: 6.92 µg/mL
EC50, T cell activation assay (Jurkat NFAT-luciferase reporter) in the presence of OVCAR3 cells [1]: 6.64 µg/mL
EC50 [2]: 0.403 µg/mL
EC50 [3]: 0.572 µg/mL
Kd [4]: 72000 pM

B2: MSLN-39-[L]-scFv^CD3 bsAb (bispecific antibody, V domains shown)
VH: B1 VH with G32F, S33T, Y34D, Y35T, G101D, K102A, N103L, G104T, A105G
VL: DIQMTQSPSSLSASVGDRVTITCRASQSSRYYVNWYQQKPGKAPKLLIYAASSLQSGVPSRFSGSGSGTDFTLTISSLQPEDFATYYCQQSYDASYTFGGGTKVEIK
fold increase of the IC50 in the luciferase-based cytotoxicity assay on NCI-N87 cells at 200 ng/mL of soluble MSLN [5]: 27 fold
EC50, T cell activation assay (Jurkat NFAT-luciferase reporter) in the presence of Capan-2 cells [1]: 0.0128 µg/mL
EC50, T cell activation assay (Jurkat NFAT-luciferase reporter) in the presence of OVCAR3 cells [1]: 0.0082 µg/mL
EC50 [2]: 0.893 µg/mL
EC50 [3]: 0.0124 µg/mL
Kd [6]: 1.07 pM
koff [6]: 4.05e-07 s⁻¹
kon [6]: 379000 M⁻¹ s⁻¹

B3: HP4-44-[L]-scFv^CD3 bsAb (bispecific antibody, V domains shown)
VH: B1 VH with G101D, K102V, N103L, G104S, A105G
VL: B2 VL with S29I, R30S, Y31S, V33L, S95F
fold increase of the IC50 in the luciferase-based cytotoxicity assay on NCI-N87 cells at 200 ng/mL of soluble MSLN [5]: 2.5 fold
EC50, T cell activation assay (Jurkat NFAT-luciferase reporter) in the presence of Capan-2 cells [1]: 0.0105 µg/mL
EC50, T cell activation assay (Jurkat NFAT-luciferase reporter) in the presence of OVCAR3 cells [1]: 0.0087 µg/mL
EC50 [2]: 0.636 µg/mL
EC50 [3]: 0.0096 µg/mL
Kd [6]: 2910 pM
koff [6]: 0.000809 s⁻¹
kon [6]: 278000 M⁻¹ s⁻¹

B4: MSLN-30-[L]-scFv^CD3 bsAb (bispecific antibody, V domains shown)
VH: B1 VH with G32R, S33D, Y34D, Y35L, E100D, G101F, K102V, N103L, G104S, A105G
VL: B2 VL with S29I, R30S, Y31S, V33L, S91P
EC50, T cell activation assay (Jurkat NFAT-luciferase reporter) in the presence of Capan-2 cells [1]: 0.0117 µg/mL
EC50, T cell activation assay (Jurkat NFAT-luciferase reporter) in the presence of OVCAR3 cells [1]: 0.0098 µg/mL
EC50 [2]: 0.521 µg/mL
EC50 [3]: 0.0121 µg/mL
Kd [6]: 1.71 pM
koff [6]: 2.44e-07 s⁻¹
kon [6]: 221000 M⁻¹ s⁻¹

The next lines start with the values.

Kd [7]: 56.4 pM
koff [8]: 8.93e-05 s⁻¹
kon [8]: 1.58e+06 M⁻¹ s⁻¹
B5: MSLN-39 IgG (antibody, V domains shown)
VH: B1 VH with G32F, S33T, Y34D, Y35T, G101D, K102A, N103L, G104T, A105G
VL: B2 VL
notes: IgG; also called MSLN-39 antibody; MSLN-39 in IgG format

EC50, T cell activation assay (Jurkat NFAT-luciferase reporter) in the presence of Capan-2 cells [9]: 0.0156 µg/mL
EC50, T cell activation assay (Jurkat NFAT-luciferase reporter) in the presence of OVCAR3 cells [9]: 0.0116 µg/mL
Kd [6]: 1.18 pM
koff [6]: 3.03e-07 s⁻¹
kon [6]: 258000 M⁻¹ s⁻¹
B6: MSLN-31-[L]-scFv^CD3 bsAb (bispecific antibody, V domains shown)
VH: B1 VH with G32F, S33T, Y34D, Y35T, E100D, G101F, K102V, N103L, G104S, A105G
VL: B2 VL with S29I, R30S, Y31S, V33L, S91P
notes: IgG-[L]-scFv format; also called MSLN-31 bsAb; not shown: IgG heavy constant region (N297G, K322A), light constant region and the huOKT3-scFv with its 3xG4S linker; copies: 2 + 2
